Experimental data taken from the supplement of paper PMC10567573.

B1: DYRK1B (parent)
chain: ARKYFERLPGGGWTLRRTKELRKD
B2: OR3A1 (parent)
chain: PMYFFLGNLSVLDVGCISVTVPSM

Variants of: B1
Test: protein stability index of a GFP-peptide fusion (GPS, HEK-293T) (PSI 1-6); higher = more stable
Details: c terminus: a fixed tail appended
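Also: lentivirally expressed fusions sorted by FACS into six bins by GFP to DsRed ratio, PSI derived from sequencing read proportions per bin multiplied by bin number.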

Protein stability index of substitutions, site by site:
R2: A 3.77, Q 3.33, M 2.79, P 4.56, W 2.38, D 4.1, G 3.74, Y 3.85, C 3.03
A1: V 3.19, Y 2.27, F 2.44, N 3.69, G 3.78, E 3.96, S 3.9
G11: Q 3.34, Y 2.73, D 2.93, F 2.89, P 2.74, K 2.06, M 2.78
F5: L 3.83, Y 4.08, N 4.02, V 3.98, H 3.82, K 4.25, A 3.86
L8: Q 3.38, P 3.85, M 3.47, V 3.84
R22: L 2.59, T 4.19, E 4.04, G 4.3, N 3.97, Q 3.9, H 3.5, Y 1.88
E20: T 3.27, M 3.38, K 2.89, W 2.76, N 3.14, Q 3.26
G12: Q 2.95, K 3.81, S 3.11, E 3.02, H 3.85, A 3.06, M 2.95
K19: H 3.08, S 3.82, T 3.41, Y 3.25
K23: Y 3.07, P 3.1, V 3.18, D 2.72, N 3.34, H 3.33, T 3.14
R7: I 2.64, A 3.3, M 3.67, G 2.84, K 3.52, Q 4.13, P 3.94, C 2.88, D 3.21, T 2.99
L15: C 3.29, D 2.88, M 3.25
R17: F 2.58, N 3.22, K 2.69, D 3.54, H 3.2, C 2.84, M 2.38, Y 3.02, V 2.07
G10: S 3.19, V 3.45, W 2.97, A 2.93, N 4.09, Y 2.35, M 3.27
W13: L 3.54, R 3.3, P 4.18, N 3.95, I 3.31
K3: Q 3.67, G 3.51, H 3.56, N 2.5, V 2.69
T14: F 2.36, R 2.33
D24: F 2.3, T 3.36
P9: R 3.22, C 1.91, W 2.11, T 3.02, K 2.5, A 2.83
T18: R 3.72, L 1.73
E6: M 2.36, A 4.08, P 3.39
R16: H 2.44, I 2.99, Y 1.45
L21: I 3.44, G 3.95, H 3.95, W 3.76
Y4: H 4.07, G 4.37

Variants of: B2
Test: as above
Details: c terminus: a fixed tail appended

Protein stability index of substitutions, site by site:
F4: R 2.19, M 4.21, P 3.27, D 2.63
D13: M 2.35, I 3.37, G 2.55, N 2.1, F 3.38, Q 2.48, C 4.05, E 3.63
S10: L 2.05, R 2.27, K 3.48, C 2.81, W 3.31, Y 3.38, M 3.29
P1: L 4.36, N 3.87, T 2.16, R 3.81, C 2.46, A 2.23
V21: N 3.36, W 2.5, T 2.02, Q 2.67, R 1.86, M 2.58, C 3.1
V11: L 2.58, D 3.12, G 2.77, T 2.86, I 3.56, S 3.56, N 2.23, E 3.18, Y 2.86
S23: H 2.76, V 4.29, D 4.24, R 2.15, Q 3.82, Y 4.04, P 2.46, L 3.71, G 2.99, W 2.84, M 2.67, N 2.58, C 2.56, F 1.78, K 2.42, A 3.86
L6: A 2.24, E 2.34, Q 2.67, T 2.21, M 1.6, P 1.62, V 2.32
T20: Y 3.62, G 1.69, I 2.43, W 2.62, L 2.99, D 1.12, N 2.96, V 3.39, E 2.71, M 4.27
G7: Q 2.31, S 2.72, A 3.1, E 3.86, Y 2.69, N 1.99, F 3.9
G15: W 2.87, T 2.71, M 3.18, R 3.7, K 2.02, H 3.73, C 2.71, N 2.63, I 2.83, P 2.36, F 2.94, A 2, D 3.7
L12: Y 3.05, N 1.49, C 2.83, D 3.05, S 1.53, F 2.22, A 2.37, G 2.35, M 1.62
C16: K 2.14, P 2.85, M 3.08, G 2.78, Y 2.14, E 2.33
L9: S 1.99, Q 1.96, A 2.42, K 2.86, C 3.93, R 3.52, E 3.5
V14: A 3.36, R 1.39, T 3.36, P 4.21, M 3.24, L 4.23, C 1.99, D 1.96, Q 1.89, Y 4.29, N 3.31, H 2.23
M2: L 4.31, I 2.31, T 2.15, E 2.1, G 2.32
N8: F 2.06, W 3.59
F5: V 2.3, P 1.79, G 1.83, D 2.06, S 3.9, E 1.46
V19: S 3.48, R 2.38, L 2.42, W 1.96, A 1.59, T 4.48, K 3.29, H 2.77, M 2.97, I 2.3, C 3.96
M24: D 3.67, I 2.02, C 2.27, N 3.98, A 3.27, T 2.89, Y 2.58, V 3.3, P 3.41
S18: G 2.33, H 3.06, W 2.37, D 2.66, F 1.68, Q 2.54, T 2.94, K 2.67, E 2.7, Y 2.26, V 1.8, P 2.5, R 3.87, N 3.31, A 3.06
I17: N 4.43, Y 1.63, M 2.76, S 3.03, E 2.17, W 3.68, D 3.15, R 3.71, K 2.97, H 2.75, A 3.4
Y3: G 2.22, M 2.3, V 4.51, T 4.47, F 2.74, H 3.35
P22: K 3.56, E 3.69, D 2.56, M 2.94, V 2.1, C 2.72, W 3.15, Q 3.27, F 2.46, Y 3.21, L 2.95, T 2.38
